Assay: yeast display, Sf9 membrane polyspecificity reagent, FACS + sequencing; frameworks hold sequencing errors
Summary of the method: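 Nanobodies from a synthetic yeast display library (Saccharomyces cerevisiae BJ5465), induced 36–48 hours with galactose, were stained 1 hour at 4 °C with 10% biotinylated, detergent-solubilized Sf9 membrane reagent, enriched on streptavidin microbeads, then FACS-sorted. Anti-HA (expression) and streptavidin (reagent binding) fluorescence set low and high (top ~1%) gates. Polyreactivity labels come from the gate of origin. Genes were colony-PCR amplified, MiSeq 2 × 250 sequenced and filtered by CDR length.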

| Sequence | polyreactivity (PSR sort gate) |
| --- | --- |
| QVHLVESGGGLVQAGGSLRLTCAASGIIFRLYAMGWYRQAPGKEREFVARISKRGGSTYYADSVKGRFTISRDNSKNTVYLQMNSLKPEDTAVYYCAADAPLSYYHDYDYWGQGTQVTVSS | high polyreactivity |
| QVHLVESGGGLVQAGGSLRLTCAASGSIFLGHAMGWYRQAPGNERDLVAAISSITGRTYYADSVKGRFTISRDNAKNNVYLHMNSLKPEDTAVYYCNKVSRSFIVNTDDYWGQGTQVTVSS | high polyreactivity |
| QVHLVESGGGLVQAGGSRRLSCAASGRISTLNALGWYRQAPGKVWEFVAAISWRGGSTYYADSVKGRFTISRDNAKNTVYVQMNSLKPEDTAVYYCAARPYTLAFYRFGYWGQGTKVTVSS | high polyreactivity |
| QVHLVESGGGLVQAGGSRRLSCAASGSIFRWYAMGWSRQAPGKERELVAAITRSGGRTYYADSVKGRFTISRDNAKNTVYLQMNSLKPEDTAVYYCAAVARTVPSYSYNYWGQGTQVTVSS | high polyreactivity |
| QVHLVESGGGLVQAGVSLRLSCAASGRTVVNAMGWYRQAPGKERELVAAISSNGGRTYYADSVKGRFTISRDNAKHSVYLQMNSLKPEDTAVYYCAAYNTHRYDYWGQGTQVTVSS | high polyreactivity |
| QVHLVESGGGLVQARGSLRLSCAASGSTIGYNTMVWYRQAPGKERELVAAITSGGRTYYADSVKGRFTISRDYAKNTVYLQMNSLKPEDSAVYYCAAYYWWGYPENEYWGQGTQVTVSS | high polyreactivity |
| QVHLVESGGGLVQGGGSLRLSCAASGGTIYYYAMGWYRQAPGKERELDAANRCSGGSTYYADSVKGRFTISRDIAKNTVSLQMNSLKPEDTAVYYCPSRGGNPKGYGYLAFNYWGQGTQVTVSS | high polyreactivity |
| QVHLVESGGGLVQPGGSLRLSCAASGFPFYINAMGWYRQAPGTERELVAAITIGSTTYYADSVKGRCTISRDNAKNTVYLQMNSLKPEDTAVYYCAAEVWRDYTSRLYDYWGQGTQVTVSS | low polyreactivity |
| QVHLVESGGGLVQSGGSLRLTCAASGRTFSQYAMGWYRQAPWKERDLVAAISWSGGSTYYADSVKGRFTFSRDNAKNTVYLEMNSLKPEDTAVYYCAAVGKGSARSSYQVLYDYWGQGTQVNVSS | low polyreactivity |
| QVHLVESGGRLVQAGGSLRLSCAASGSTFGYYAMVWYRHAPGKDRELVAAITSGASTYYADSVKGRFTISRDNAKKTVYLQMNSLKPEDTAVYYCAARRWRKYYSGYNYWGQGTQVTVSA | high polyreactivity |
| QVHLVESGGVLVQAGGSLRLSCAASGRIFYRYAMGWYRQAPGKERELVAAITHRGGSTYYADSVKGRFTISRDNAKNTVYLQMNSLKPEDTAVYYCAGRITEAVADYVGHKPYDYWGQGTQVTVSS | low polyreactivity |
| QVHLVESGRGFVQAGGSLRLSCAASAFTFHSYAMGWYRQAPGKERELVASISSSGSTNYADSVKGRFTISRDNEKNTVYLQMISLKPEDTAVSYCAAESRYPFIYEYWGQVTQVTVSS | low polyreactivity |
| QVHLVESGVGLVQAGGSLRLSCAASGITFGYYAMGWYRQAPGKERENVAAITRRGGSTYYADSVKGRFTISRDNAKNTVYLQMNSLKPVDTAVYYCAAVSYRYWFIEDNYWGQGTQVTVSS | high polyreactivity |
| QVHLVESGVGLVQAGGSLRLSCAASGQIFPYYAMGWYRPAPGKETELVAAITSGGGTYYADSVKGRFTISRDNAKNTVYLQMNSLKPEDTAVYYCAVGSYGHPKHRRNLDYWGQGTQVTVSS | low polyreactivity |
| QVHLVESGVGLVQAGGSLRLSCASSGSTFYAYAMGWYRQAPGKERELVAAIDSGGSTYYADSVKGRFTISRDNAKNTVYLPMNILKPEDSAVYYCAVRHRYTRAYWGRDYWGQGTKVTVSS | low polyreactivity |
| QVHLVESGVGLVQAGGSLRLSCASSGSTYKPNALGWYSQAPGKESEFVAAITSGSTYYADTVKGRYTISRDNAKYNVYLQMNSLKPEDTAVYYCATSVRGKSPYRKSGSYYYWGQGTQVTVSS | high polyreactivity |
| QVHLVESGVGLVQARGSLRLSCASSGSTFGGNAMGWYRQAPGTERELVAAIDSGGGTNYADSVKGRFTIARDNAKNTVYLQMTSLKPEDTAVYYCNADWAVRSTQNSSSGHDYWGQATQVTVSS | low polyreactivity |
| QVHLVESGVGLVQSGGSIRLTCAASGSTFHVYTKGSYRQAPGKEREFVASISCSGSSTYYADSVKGRFTISRDNAKNTVYLQMNSLKPEDTAVYYCNVDRWWLGWYKFNYWGQGTQVTVSS | high polyreactivity |
| QVHLVESVGGLVQAGGSHRLSCAASGRTLGFYAMGWYRQAPGKERELVAAINWSGGSTYYADSVKGRFTISRDNAKNTVYLQMNSLKPEDTAVYNCGVGTNYYDYWGQGTQVTVSS | high polyreactivity |
| QVHLVESVGGLVQAGGSLRISCAASGRIFSKYAMGWYRQAPGKDRELVGAITSSTKYADSVKGRFTISRDNAKNTVYLQMHSLKPEDTAVYSCNAEFVWHTYYGADFKMDYWGQGTQVTVSS | high polyreactivity |
| QVHLVESVGGLVQAGGSLRLSCAASGRTFPYNAMGWYIQAPGKERELVAVISKGGGRTYYADSVKGRFTISLDNAKNTVYLQMNSLKPEDTAVYYCDARYDGSSDYRLNYWGQGTQVTVSS | high polyreactivity |
| QVHLVESVGGLVQAGGSLRLSCAASGRTFRRYAMVWYRQAPGKERELVATITSADSTNYADSVKGRFTISRDNAKNTVYLQMNSLKPEDTAVYYCAKRWGRYAMYYWGQGTQVTVSS | high polyreactivity |
| QVHLVESVVCLVQAGGSLALSCASYGSIFRYYALGWYIQGTGKESELVAGITWGCRRTFYADSEKGRFTISRHNAKNTFYIQMNILKPEDTAVCYCAPRWFWKAYRFYYWGQGTQLTVSS | high polyreactivity |
| QVHLVETGGGLVHAGGSLRLSCAASGFIFGVNAMGWYRQAPGKERELDAAITRNGGSTYYADSVKGRFTISRDYAKNTVYLQMNSLKPEDTAVYYCAKYVRRAPSSIDVDYWGQGTQVTVSS | high polyreactivity |
| QVHLVETGGGLVQAGGSLRLSCAASGRTFYVNAMGWYRQAPWKERELVARITSGGSTYYADSVKGRFTISRDNAKNTVYLQMNSLKPEDTAVYYCAKKYIGYQVWIHSTRRYDYWGHGTQVTVSS | low polyreactivity |
| QVHLVETGGGLVQAGGSLRLSCAASGSIFSSYHMVWYRQAPGKERELVASISSGGSTNYADSVKGRFTISRDNAKNTVYLHMNSLNPEVTAVYYCNVDLYNWRGDSTGYDYWGQGTQVTVSS | low polyreactivity |
| QVHLVETGGGLVQAGGSPRLSCAASGRTLLDYGLGWYRQAPGKERELVAGITSSGGRSYADSVKGRLTISRDNAKNTVYLEMNSLKPEDSAGYYCAAYLNLSELLRYHYWGKGTQVTVSS | low polyreactivity |
| QVHLVETGRGLLQSGGSLRISCAASGRTFIYNAMGWYRQAPGKERELVARISSGGGNTYYAYSVKWRFTISRDNANNTVYLLMNSLKPEDTAVYYCAIGWRPSFSYYWGQGTQVTVSS | high polyreactivity |
| QVHLVQSGGGIVQEGGSLRISCAASGFTLIHYAMGWYRQAPGKERELVAGITTSGGSTYYADSVKGRFTISRDNAKNTVYLQMKSLKPEDTGVYYCADSSNTRGDYWGQGTQVTVSS | high polyreactivity |
| QVKHVESGGGLVKAGGSLRLSCPAAGRIIDKYAMGWYRQSPGKERELVATITSSGGSTYYADSVKGRFTISRDTAMNNVYLQMNSLKPEDTAVYYCDALDRTGYSRGETRSLYYFWGQGTQVTVSS | low polyreactivity |
